These results are taken from the FLAb antibody collection (doi:10.7554/elife.23156).

The term Kd denotes a measure of binding affinity in units of concentration.

B1: scFv; the commonest letter at each place (parent)
chain 1: EVKLDETGGGLVQPGRPMKLSCVASGFTFSDYWMNWVRQSPEKGLEWVAQIRNKPYNYETYYSDSVKGRFTISRDDSKSSVYLQMNNLRVEDMGIYYCTGSYYGMDYWGQGTSVTVS
chain 2: DVVMTQTPLSLPVSLGDQASISCRSSQSLVHSNGNTYLRWYLQKPGQSPKVLIYKVSNRFSGVPDRFSGSGSGTDFTLKISRVEAEDLGVYFCSQSTHVPWTFGGGTKLEIK

The data set “fluorescein” covers variants of B1. As to the kind of experiment: Kd (Tite-Seq). Particulars: with fluorescein; format: scFv 4-4-20, heavy + light.
In data set [1] the parent is B1. As to the kind of experiment: yeast surface expression (ratio to wild type); higher = more expressed. Conditions: format: scFv 4-4-20, heavy + light.

With chain 1 S101H Y107R W108C, in the data set with fluorescein, the Kd was no less than 10 µM. Further, the yeast surface expression in data set [1] was found to be 0.22.

Consider chain 1 S30Y Y32P, for which the equilibrium dissociation constant (Kd) with fluorescein is no less than 10 µM. In data set [1], the yeast surface expression was found to be 0.691.

chain 1 S101C Y103V D106I: the dissociation constant (Kd) with fluorescein was no less than 10 µM. The yeast surface expression in data set [1] came out at 0.168.

chain 1 S101Q Y102D Y107P: the Kd with fluorescein was no less than 10 µM. Moreover, the yeast surface expression in data set [1] came to 0.361.

Consider chain 1 S101I M105N, for which the Kd with fluorescein is no less than 10 µM. The yeast surface expression in data set [1] is 0.482.

Take chain 1 S101I M105V: the Kd in the data set with fluorescein was no less than 10 µM. For the same variant, the yeast surface expression in data set [1] was 0.468.

For the variant chain 1 S101A Y107E W108G, in the data set with fluorescein, the equilibrium dissociation constant (Kd) is no less than 10 µM. For the same variant, the yeast surface expression in data set [1] turned out to be 0.353.

Take chain 1 S101L G104S: in the data set with fluorescein, the Kd was no less than 10 µM. In addition, the yeast surface expression in data set [1] was determined as 0.326.

Regarding chain 1 S101L G104I, the Kd with fluorescein is no less than 10 µM. The yeast surface expression in data set [1] amounted to 0.452.

chain 1 S101G M105A: the equilibrium dissociation constant (Kd) in the data set with fluorescein is no less than 10 µM. The yeast surface expression in data set [1] turned out to be 0.988.

For the variant chain 1 S30Y V37H, in the data set with fluorescein, the Kd is no less than 10 µM. In addition, in data set [1], the yeast surface expression is 0.57.

As for chain 1 S101A Y107S, the dissociation constant Kd with fluorescein is 0.00175 µM. In addition, the yeast surface expression in data set [1] came out at 0.854.

Take chain 1 S30V M34S: in the data set with fluorescein, the Kd was no less than 10 µM. The yeast surface expression in data set [1] stood at 0.569.

Consider chain 1 S30V M34H, for which the dissociation constant (Kd) in the data set with fluorescein was no less than 10 µM. Also, the yeast surface expression in data set [1] amounted to 0.497.

Turning to chain 1 S101H G109V, in the data set with fluorescein, the Kd is no less than 10 µM. For the same variant, the yeast surface expression in data set [1] worked out at 0.231.

For the variant chain 1 S101F W108F, the Kd with fluorescein is no less than 10 µM. Besides, the yeast surface expression in data set [1] amounted to 0.199.

As to chain 1 S101F W108E, in the data set with fluorescein, the equilibrium dissociation constant (Kd) is no less than 10 µM. In addition, in data set [1], the yeast surface expression is 0.216.

As to chain 1 S101F W108K, in the data set with fluorescein, the Kd is no less than 10 µM. Further, the yeast surface expression in data set [1] turned out to be 0.217.

As to chain 1 S30T W36M, in the data set with fluorescein, the equilibrium dissociation constant (Kd) was 0.02 µM. The yeast surface expression in data set [1] worked out at 0.705.

As for chain 1 S101K G104W M105V, in the data set with fluorescein, the Kd was no less than 10 µM. Moreover, the yeast surface expression in data set [1] is 0.205.

Take chain 1 S101Q G109S: the Kd with fluorescein was no less than 10 µM. In addition, in data set [1], the yeast surface expression was determined as 0.645.

For the variant chain 1 S101C G104N G109R, the Kd with fluorescein was no less than 10 µM. The yeast surface expression in data set [1] came to 0.263.

Take chain 1 S101A G104N: the dissociation constant Kd with fluorescein is no less than 10 µM. Further, in data set [1], the yeast surface expression was 0.72.

In the case of chain 1 S101M W108G, the Kd with fluorescein is no less than 10 µM. Further, the yeast surface expression in data set [1] is 0.228.

Regarding chain 1 S101M Y103D, the dissociation constant (Kd) with fluorescein was no less than 10 µM. Moreover, the yeast surface expression in data set [1] came out at 0.917.

For the variant chain 1 S101M Y103G, the equilibrium dissociation constant (Kd) with fluorescein is no less than 10 µM. For the same variant, the yeast surface expression in data set [1] is 0.868.

For the variant chain 1 S101M Y103A, in the data set with fluorescein, the Kd is no less than 10 µM. Further, the yeast surface expression in data set [1] is 0.658.

chain 1 S101T D106Q: in the data set with fluorescein, the Kd is no less than 10 µM. The yeast surface expression in data set [1] came to 0.796.

With chain 1 S30V W33A, the dissociation constant (Kd) in the data set with fluorescein was no less than 10 µM. In addition, in data set [1], the yeast surface expression worked out at 0.748.

For the variant chain 1 S101N W108D, in the data set with fluorescein, the Kd was no less than 10 µM. For the same variant, the yeast surface expression in data set [1] is 0.399.

As for chain 1 S101N W108P, the Kd with fluorescein was no less than 10 µM. In addition, in data set [1], the yeast surface expression came out at 0.506.

Regarding chain 1 S101M Y107H, the Kd in the data set with fluorescein is no less than 10 µM. Besides, the yeast surface expression in data set [1] came to 0.483.

With chain 1 S101D D106N, in the data set with fluorescein, the Kd was no less than 10 µM. For the same variant, in data set [1], the yeast surface expression was determined as 0.813.

With chain 1 S101D D106K, in the data set with fluorescein, the dissociation constant (Kd) was no less than 10 µM. Also, the yeast surface expression in data set [1] turned out to be 0.435.

For chain 1 S30W, the Kd with fluorescein came to 0.00215 µM. The yeast surface expression in data set [1] stood at 0.701.

With chain 1 S30Y, in the data set with fluorescein, the Kd worked out at 0.00146 µM. For the same variant, the yeast surface expression in data set [1] is 0.759.

With chain 1 S30V, the dissociation constant (Kd) with fluorescein amounted to 0.000743 µM. For the same variant, the yeast surface expression in data set [1] was determined as 0.901.

In the case of chain 1 S101C M105Y Y107T, in the data set with fluorescein, the Kd was no less than 10 µM. In addition, in data set [1], the yeast surface expression was 0.488.

For the variant chain 1 S101C M105Y Y107D, the Kd in the data set with fluorescein is no less than 10 µM. Moreover, in data set [1], the yeast surface expression is 0.281.

On to chain 1 S101C M105I, for which the dissociation constant (Kd) in the data set with fluorescein is no less than 10 µM. Moreover, the yeast surface expression in data set [1] worked out at 0.826.

In the case of chain 1 S101G M105E D106R, the Kd with fluorescein was no less than 10 µM. Also, in data set [1], the yeast surface expression is 0.604.

For the variant chain 1 S101N Y107M, in the data set with fluorescein, the dissociation constant (Kd) was no less than 10 µM. Besides, in data set [1], the yeast surface expression was 0.616.

Take chain 1 S101C G104C: in the data set with fluorescein, the equilibrium dissociation constant (Kd) was no less than 10 µM. Also, the yeast surface expression in data set [1] is 0.33.

In the case of chain 1 S101D W108A, in the data set with fluorescein, the Kd is no less than 10 µM. For the same variant, the yeast surface expression in data set [1] worked out at 0.443.

Take chain 1 S101D W108Y: the dissociation constant (Kd) in the data set with fluorescein was no less than 10 µM. In addition, the yeast surface expression in data set [1] is 0.608.

As for chain 1 S101D W108N, the dissociation constant Kd with fluorescein is no less than 10 µM. Moreover, the yeast surface expression in data set [1] is 0.445.

On to chain 1 S101C Y103L, for which the Kd with fluorescein is no less than 10 µM. Further, the yeast surface expression in data set [1] came to 0.522.

For chain 1 S101C G104V D106F, in the data set with fluorescein, the Kd was no less than 10 µM. The yeast surface expression in data set [1] stood at 0.361.

For the variant chain 1 S101F M105I, the Kd with fluorescein was no less than 10 µM. For the same variant, in data set [1], the yeast surface expression amounted to 0.522.

For chain 1 S101F M105L, the equilibrium dissociation constant (Kd) with fluorescein is no less than 10 µM. Further, the yeast surface expression in data set [1] came out at 0.483.

Regarding chain 1 S101F M105G, the Kd with fluorescein was no less than 10 µM. In addition, in data set [1], the yeast surface expression is 0.559.

On to chain 1 S101D D106R W108I, for which the Kd with fluorescein is 0.00251 µM. Besides, the yeast surface expression in data set [1] is 0.452.

Turning to chain 1 S101D G104H D106A, the Kd with fluorescein is no less than 10 µM. In data set [1], the yeast surface expression worked out at 0.353.

On to chain 1 S101H M105V, for which the Kd with fluorescein is no less than 10 µM. In data set [1], the yeast surface expression was 0.592.

Turning to chain 1 S101D M105T, the dissociation constant (Kd) with fluorescein is no less than 10 µM. Besides, in data set [1], the yeast surface expression worked out at 0.799.

For chain 1 S30Y W33G, in the data set with fluorescein, the Kd is no less than 10 µM. In data set [1], the yeast surface expression came out at 0.602.

For chain 1 S30Y W33L, the equilibrium dissociation constant (Kd) in the data set with fluorescein is no less than 10 µM. Moreover, the yeast surface expression in data set [1] was determined as 0.755.
